From the nanobody polyreactivity screen of Harvey et al. (2022)

Assay: yeast display, Sf9 membrane polyspecificity reagent, FACS + sequencing; frameworks hold sequencing errors
Summary of the method: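 Polyreactivity labels are assigned by the sorting gate from which each nanobody was recovered. The gates were low and high (top ~1%), set on anti-HA fluorescence for expression and streptavidin fluorescence for reagent binding. Before sorting, galactose-induced (36–48 hours) yeast display cells were stained for 1 hour at 4 °C with 10% biotinylated, detergent-solubilized Sf9 membrane reagent.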

Row | Sequence | polyreactivity (PSR sort gate)
1 | QDQLVESGGGLVQAGGSLRLSSAASGRTFCYNTKGWYRQSPGKERELLAAINYSGGSTYYADSVKGRFTISRDNAKNTVYLQMNSLKPEDTAVYYWNAKPRWYVPYDYWGQGTQVNVSS | high polyreactivity
2 | QDQLVESGGGLVQAGGSLRLTCAASGSTFNYYAMGWYRQAPGKERELVAAISRSGGRTYYADSVKGRFTISRDNAKTTVYLQMNSLKEEDTAVYYCAAQVLTTGGEGGYWGQGTQVTVSS | high polyreactivity
3 | QDQLVESGGGLVQAGGSLSLICDASGRTFSTKFMGWYIQAAGKERQLVAAITTSSSRTYYADSVKGRFTISRDNANHTVYLLMNSLKPEDTAVYYCAARIHGSWSFDYWGQGTQVTLSS | low polyreactivity
4 | QDQLVESGGGLVQAGGSLSLSCAASGRNFFHNAMGWYRQAPGKERELVASITSGDGTYYADSVKGRFTISRDNAKNTVYLQMNSMKPEDTEVYSCAAEPGSIAYYYTRVGLYYWGQGTQVTVSS | low polyreactivity
5 | QDQLVESGGGLVQAGGSLSLSCAASGRTFTVYAMGWYRQAPGKERELVAAISGSSGSTDYADSVKGRFTISRDNAKNTVYLQMNSLKPEDTAVYYCAKASSATRYVQLRQDYDYWGQGTQVTVSS | low polyreactivity
6 | QDQLVESGGGLVQAGGSLSLSCAASGSTFLTNAMGWYRQAPGKERELVAAISRRGGNTYYADSVKGRFTISRDNAKNTVYLQMNSMNPEDTAVYYCNAVTPTTLGDYWGQGTQVTVSS | high polyreactivity
7 | QDQLVESGGGLVQAGGTLRLSGAASGRTFDRNAMGWYRQAPGKAWEVVAGITRSGDSTYADSVKGRFTISRDNAKNTVYLQMNSLKPEDTAVYYCNKEGTVGGTRGYWGQGTQVTVSS | low polyreactivity
8 | QDQLVESGGGLVQAGVSLLLICAASGSTSSVYAMGWYRQAPGKERELVAAIRWSTGSTYYADSVKGLFTISRDNAKNTVYLHMNCLKPEETALYYCAAEVYTSVHIYSWYYYWGQGTKVTVSS | high polyreactivity
9 | QDQLVESGGGLVQAGVSLRLICPASGLTFYTYAMGSYRQAPGKERELVAAIRRRGGRTYYADSVKGRFTISRDNAKNTVFLQMNSLKPEDTAVYYCAADYSTLFKYDYWGQGTQVTVSS | low polyreactivity
10 | QDQLVESGGGLVQARGSLRLSCAASGSIFVHNAMGWYRQAPGKEREFVAAITWSGGSTYYADSVKGRFTISRDYAKNTVYLQMNSLKPEDTAVSYCAAEDVAAQWAYESPTSYWYYYWGQGTQVTVSS | low polyreactivity
11 | QDQLVESGGGLVQARGSLRLSCASSGSTFDTNTMGWYRQAPGKERELVASNSRGTSTKYADSVKGRFTISRDNAKNTVYLQMNSLKPEDTAVYYCNAVSRDKSLYDYWGQGTQVTVSS | high polyreactivity
12 | QDQLVESGGGLVQARVSLRLSCAASGLIFRRYAMGWYRQAPGKEREFVAAITVSGGRTYYADSVKGRFTISRDNAKNTVYLQMNSLKQEDTAVYYCDAHGYGDNRNKYFYWGLGTQVTVSS | high polyreactivity
13 | QDQLVESGGGLVQAVGSLRLSCAASGSTFWSYAMGWYRQAPGKERELVAAITDSGGSTYYADSVKGRFTISRDNAKNTVYLQMNSLKPEDTAVYYCAVDSRYTPPLRPLGPFDYWGQGTQVTVSS | low polyreactivity
14 | QDQLVESGGGLVQSGGSLLLSCAPSGSMFSFYAMGCYRQAPGKEMELVAAITRGGATTNFADSVKGRFTISRDNAKNTVYLQMNSLKPEDTAVYYCAARTPNVNAVWMDYWGQGTQVTVSS | high polyreactivity
15 | QDQLVESGGRLVQAGGSLRLSCAASGITFSRYAMGWYRQAPGKEWELVAAISCSGARTYYADSVKGRFTISRDNAKNTVYLQMNSLKPEDTAVYYCDRFLRNFKTYDYWGQGTQLTVSS | high polyreactivity
16 | QDQLVESGGRLVQAGGSLRLSCAASGRTVYYYTMGWYRQAPGKEREFVAGIRYSGSSTYYADSVKGRFTISRDTAKNTVSFQMNSLKPEATAVYYCAASLWRWRFSRFGYWGQGTQVTVSS | high polyreactivity
17 | QDQLVESGRGLDQAGGSLRLICAASGRIFDRYALGWYRQAPGTERELVAAISWNTGSTYYADSVKGRFTISRDNAKNTVYLQMNSLKPEDTAVYYCAAAVRPYKRQDDYWGQGTQVTVSS | high polyreactivity
18 | QDQLVESGVGLVQAGVSLRLSCAASGSIFESYAMGWSSQAPGKESELVAAIDYDDGSTYYADSVKGRFTISRDNAKNTVYLQMNSLKPEDTAVYYCAAKPTTYYGISDYWGQGTQVTVAS | high polyreactivity
19 | QDQLVESRGGLVQAGGSLRLSCAASGLIFPVYAMGWYRQAPRKEREFVASIWRGGTTYYADSVKGRFTISRDNAKNTVYLQMISLKPEDTAVYYCAAVVYSRGYYWGQGTQVTVSS | high polyreactivity
20 | QDQLVESRGGLVQAGGSLRLSCAASGSTFVNNAMGWYRQAPGKERELVAAIRSSDGRTYYADSVKGRFTISRDNAKNTVYLQMNSLKPEDSAVYYCATAVGTKYRTRIFEFYYWGQGTQVTVSS | high polyreactivity
21 | QDQLVESRGGLVQAGRSLRISCAASGFIFYNYGMGWYRQAPGKEREFVAAITKRGGRTYYADSVKGRFTISRDYAKNTVYLQMTSLKPEDTAVYYCNKAIRQDRWVQEEDYWGQGTQVTVSS | high polyreactivity

Row | Sequence | polyreactivity (PSR sort gate)
22 | QDQLVESRGGLVQAGVSLRLSCAASGIIFAENAMGWYRQAPGKERELVAAITWNGGRTYYADSVKGRFTISRDNAKNTVYLQMNSLKPEDTAVYYCNAVTVYYRIYEYWGQGTQVNVSS | high polyreactivity
23 | QDQLVESRGVLVQAGGTLRLSCAASGSTFVYYVMGWYRQAPVKERELVAAISWSDDSTYYADSVKGRFTISRDNAKNTVYLQMNSLIPVDTAVYYCAATGYPFYTSGDIEYYYWGQGTQVTVSS | low polyreactivity
24 | QDQLVESVGCLVQAGGSLRLSCAATGRIFQSYAMGWYRQAPGKERELVAGIRAGGGRTYYADSVKGRFTISRDIAKNTVYVQMNSLKPEDTAVDYCAARFVGSFYAPFDYWGQGTLVTVSS | low polyreactivity
25 | QDQLVESVGGLVQAGGSLRLSCAASGITFRYYTMGWYRQAPGKESELVAVISWSGGSTYYADSVKGRFTISRDNAKNTVYLQMNSLKPEDTAVYYCAAVRRISRYDYWGQGTQVTVSS | high polyreactivity
26 | QDQLVESVGGLVQAGGSLRLSCAASGTISYAGPMGWYRKAPGKEREFVAGIGVCSNTNYADSVKGRYTIIRDNAKNTVYLQMNSLIPEDTAVYYCAVGGYAPLGRPYWGQGTQVTVSS | low polyreactivity
27 | QDQLVESVGGVVQAGGSLRLSGAASGIIFVAYAMGWYRQAPGKERELVASITYSGGSTNYADSVKGRFTISRDNAKNTVYLQLNSLQPEETAVDYCARDRDPVYASVLWDDYGYWGQGTQVTVSS | low polyreactivity
28 | QDQLVETGGGLVQAGGSLRLSCAAYGSIFDLNAMGWYRQAPGKESELVAAITYSSGRTYYADSVKGRFTISRDNAKNTVYLQMNSLKPEDTAVYYCNADLWFHYYRYNYWGQGTQVTVSS | high polyreactivity
29 | QEQLEESGGGLVQAGGRLRLSCAASGSIFTTYTMGWYRQAPGKERELVAAIDYSGDSTYYADSGKGRFTISRDTAKNTVYLQMNSLKPEDTAVYYCNAVSFSAYVPYGYWGQGTQVTVSS | low polyreactivity
30 | QEQLEESGGGLVQAGGRLRLSCAASGSTFGINARGWYRQAPGKEREVVASITRRGGSTYYADSVKGRFTISRDNAKNTVYLQMNSLKPEDTAVYYCNKTYRYGTPLYYYWGQGTQVTVSS | high polyreactivity
31 | QEQLHESGGGLVQAGGSLRLSCAASRTISVTYNMGWYRQATGKEREFVAGNSTGDTTNYADSVKGRFTISRDNAKNTVYLQMNSLKPEDTAVNYCSAHIYRQDHFYYWGQGTQVTVSS | low polyreactivity
32 | QEQLQERGGGLVQAGGSLRLSCAASGNISVTGFMGWYRQAPGKERELVASIGIGGTTYYADSVKGRFSMSRDNAKNTVYLKMNRLKPEDTAVYYCAVRWYDHVSRRGIGYYWGKGTQVTVSS | low polyreactivity
33 | QEQLQESGDGLVQAGGSLRLSSAASGTIFSDYGMGGYRQAPGKERELLAGISDGCNTNYTDSVKGRFTISRDNAHRVSADEQPETGGYRGVLLRGSERWLLFYVYWGQGTQGTVSS | high polyreactivity
34 | QEQLQESGGGLVQAGCSLRLSCAANGYIFSVEDMGRYCLAPGKEREFVATINYDTSTYYADSVKGSFTISRDNAKKTVYLQMNSLKPEDTEVYYCEAYFYAYRSPGYWGQGTQVTVSS | high polyreactivity
35 | QEQLQESGGGLVQAGGSLRLSCAAIGSNIPTIYMGWYRHAPGKEREFVAAIGKGCSTYYADSVKGRFTISRDNALKTVYLQMNSLIPEDNAVYYCAFDPYASQDLAYWGQGTLVTVSS | low polyreactivity
36 | QEQLQESGGGLVQAGGSLRLSCAASGIIFDWFFMGWYRQAPGREREFVAAITYGATTNYADSVKGRFTISRDNGKNTVYLQMNSLKPEDSAVYYCAAQHRGVQVTFGEYDYWGQGTQVTVSS | low polyreactivity
37 | QEQLQESGGGQVQAGGSLLLSCAASGNIIRYYYMGWYRQAPGKERELVAAITYGTSTNYADSVKGRFTISRDNATNTEFLQMNSLKPEDTAVYYCAVDVNYGDPIDNWGQGTQVTVSS | high polyreactivity
38 | QEQLQESGGGQVQAGGSLLLSCAASGNIIRYYYMGWYRQAPGKERELVAAITYGTSTNYADSVKGRFTISRDNEKNTVYLQMNSLKPEDSAVYYFAVVVNYGDPLVNWGQGTQVTVSS | high polyreactivity
39 | QEQLQESGGGQVQDGGSLRMSCAASGSISYASGLCWYSQEQGKEREFVASIDPGAITNYADSVKGRFTISHDNAKNTVYLQMNRLKPEDTAVYYCAADGHGGYGYWGQGTQVTVSS | high polyreactivity
40 | QEQLQESGVGQVQAGGSLLLSCAASGNIIRYYYMGWYRQAPGKERELVAAITYGTSTNYADSVKGRFTISRDNAKNSVYLQINSLKPEDTAVYYCAATAYWFYAKYYYWGQGTQVTVSS | high polyreactivity
41 | QEQLVESGGGLVQAGGSLRLSCGASRSIVHYYAMGWYRQAPGKEREFVAAIAWGGDSTYYADSVKGRFTNSRDNANNTVYFQMYSLKPEDTAVYYCAADGPGGIGNGAGYDYWGQGTEVTVSS | low polyreactivity
